US20070185028A1, “Compositions and methods for treatment of protein misfolding and protein aggregation diseases” (priority 2004, published 2007)

Legend:
α-synuclein = target: T1, α-synuclein (Homo sapiens, UniProt P37840); assay: α-synuclein fibrillation ThT assay; format: biochemical; settings: for change of ThT fluorescence of α-synuclein: concentration increased to 46 μM
T1 construct: purchased rPeptide
Protocol: The effect of the five αB crystallin peptides, ST, DR, HG, LT, and ER on as synuclein fibrillation was measured using the ThT fluorescence assay (FIG. 28). The formation and inhibition of α-synuclein fibrils was qualitatively verified by fluorescence and bright-field microscopy. The concentration of the peptides was varied relative to α-synuclein to establish a concentration curve. In addition, the effect of a control neuropeptide (AT1) with no α-synuclein fibril inhibition activity was measured and compared to the effect of the αB crystallin peptides on α-synuclein fibrillation. The ThT fluorescence of 46 μM α-synuclein alone incubated at 37° C. for 96 hrs, increased from ˜9,500 to ˜16,000 RFU. Addition of 9.2 μM αB crystallin peptides ST, DR, HG, LT, and ER decreased the ThT fluorescence of α-synuclein by 32-100%. When the concentration of the αB crystallin peptides was increased to 46 μM, the ThT fluorescence of α-synuclein decreased with the αB crystallin peptides, DR, HG, LT, and ER, while the ThT fluorescence increased with the ST peptide. […] The negative control peptide AT1 had no effect on α-synuclein fibrillation even at a concentration as high as 460 μM. All five αB crystallin peptides inhibited α-synuclein fibrillation at sub-stoichometric and stoichometric concentrations (9.2 μM and 46 μM).
The Thioflavin T (ThT) fluorescence of 46 μM α-synuclein in the presence of varying concentrations of αB crystallin peptides and controls was measured. […] When the concentration of the peptides was increased to […] (1:1::peptide:α-synuclein), the αB crystallin peptides DR, HG, LT and ER decreased the ThT fluorescence by 51-100%, while the ST peptide had no effect on ThT fluorescence. When the concentration of the peptides was increased further to […] (10:1::peptide:α-synuclein), the five αB crystallin peptides decreased the ThT fluorescence by 40-100%. […] The formation and inhibition of β2-microglobulin fibrils was verified microscopically.
α-synuclein fibrillation ThT assays were performed as described previously. Zhu et al., J Biol Chem 279:26846-57, 2004; Dedmon et al., J Biol Chem 280:14733-40, 2005. Peptides were dissolved to 2 mM in 0.25% DMSO and diluted accordingly, while α-synuclein was dissolved in 20 mM Tris-Cl, 100 mM NaCl, pH 7.4. For the 5:1::peptide: α-synuclein assay, 5 μL of 700 μM peptide or APS was mixed with 5 μL of 140 μM α-synuclein, 17 μt of 20 mM Tris-Cl, 100 mM NaCl, pH 7.4 and 3 μL of 1 mM ThT. For the 1:1::peptide:α-synuclein assay, 5 μL of 140 μM peptide was mixed with 5 μL of 140 μM α-synuclein, 17 μl of 20 mM Tris-Cl, 100 mM NaCl, pH 7.4 and 3 μL of 1 mM ThT. For the 1:5::peptide:α-synuclein assay, 5 μL of 28 μM peptide was mixed with 5 μL of 140 μM α-synuclein, and […] of 20 mM Tris-Cl, 100 mM NaCl, pH 7.4 and 3/L of 1 mM ThT. ThT fluorescence was measured using a Perkin Elmer Victor^3 V plate reader. Assays were performed in 384-well fluorescence plates in duplicates or triplicates. Samples were incubated at 37° C. for a total of 96 hours. ThT fluorescence was measured at 0, 24, 48, and 96 hours. The effect of the peptides and APS was calculated as percentage fibril formation relative to α-synuclein alone (100%) at the end of 96 hours.

γD crystallin = target: T2, γD crystallin (Homo sapiens, UniProt P07320); assay: γD crystallin Thioflavin T fluorescence (fibrillization); format: biochemical; settings: 1:1 γD crystallin:peptide; for Δfluorescence (γD crystallin): Thioflavin T, 50° C., 72 hours
T2 sequence (P07320 2-174): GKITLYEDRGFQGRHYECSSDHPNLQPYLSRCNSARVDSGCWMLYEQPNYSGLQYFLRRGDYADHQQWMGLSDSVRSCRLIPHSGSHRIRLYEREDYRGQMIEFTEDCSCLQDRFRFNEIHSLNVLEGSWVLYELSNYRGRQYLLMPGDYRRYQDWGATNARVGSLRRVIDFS
Protocol: γD crystallin Thioflaviin T fluorescence. γD crystallin fibrils were formed in a similar way to that of γ crystalline. Meehan et al., J Biol Chem 279: 3413-3419, 2004. Peptides were dissolved to 9.1 mM in TFE and diluted to 0.91 mM stock solutions in 10% TFE, pH 2.0. 3.5 mg of Thioflavin T was dissolved in 100 μl of 50 mM Glycine pH 8.5. A stock solution of 1 mg/ml (0.22 mM) Aβ was prepared. 20 μl Aβ, 5 μl chaperone, 2 μl Thioflavin T was mixed with 73 μl 10% TFE, pH 2.0. Fluorescence was read using a Beckman Coultier DTX 880 multimode detector. Samples were heated at 50° C. for 72 hours and fluorescence was read again.
The fibrillization of γD crystallin was measured as fluorescence of the fluorescent dye Thioflavin T from solutions containing 1:1 monomeric molar ratio of γD crystallin:peptide. In the absence of fibrils Thioflavin T had little or no fluorescence. The fluorescence of the Thioflavin T bound to γD crystallin fibrils in the absence of any other molecule after 72 hrs was set to 100%. […] Fibril formation=ΔfluorescenceγD crystallin (with chaperone)*100/ΔfluorescenceγD crystallin (without chaperone).

| change of ThT fluorescence of α-synuclein (α-synuclein) | Δfluorescence (γD crystallin) (γD crystallin) | decrease in ThT fluorescence of α-synuclein (α-synuclein; 16 μM (1:1::peptide:α-synuclein) as printed) | effect on the fibrillization of γD crystallin (ranking) (γD crystallin; 72 hrs) | Sequence | effect on α-synuclein fibril formation, overall (α-synuclein) |
| --- | --- | --- | --- | --- | --- |
| decreased | 661,038,176 | – | – | DRFSVNLDVKHFS | most effective inhibitor |
| decreased | 611,017,728 | – | – | ERTIPITRE | – |
| decreased | 675,352,992 | – | – | LTITSSLSSDGV | – |
| increased | 606,290,176 | no effect | strongest effect | STSLSPFYLRPPSFLRAP | – |

| Sequence | change of ThT fluorescence of α-synuclein (α-synuclein) | Δfluorescence (γD crystallin) (γD crystallin) | decrease in ThT fluorescence of α-synuclein (α-synuclein; 16 μM (1:1::peptide:α-synuclein) as printed) | effect on the fibrillization of γD crystallin (ranking) (γD crystallin; 72 hrs) | effect on α-synuclein fibril formation, overall (α-synuclein) |
| --- | --- | --- | --- | --- | --- |
| HGKHEERQDE | decreased | 734,394,240 | – | – | most effective inhibitor |
